In patent US20110177071A1 (PERSEID THERAPEUTICS, published 2011):

T1: human CD86-murine Ig fusion protein (human)
T1 construct: Bought (Ancell #509-820); also called hCD86-mIg
T1 chain: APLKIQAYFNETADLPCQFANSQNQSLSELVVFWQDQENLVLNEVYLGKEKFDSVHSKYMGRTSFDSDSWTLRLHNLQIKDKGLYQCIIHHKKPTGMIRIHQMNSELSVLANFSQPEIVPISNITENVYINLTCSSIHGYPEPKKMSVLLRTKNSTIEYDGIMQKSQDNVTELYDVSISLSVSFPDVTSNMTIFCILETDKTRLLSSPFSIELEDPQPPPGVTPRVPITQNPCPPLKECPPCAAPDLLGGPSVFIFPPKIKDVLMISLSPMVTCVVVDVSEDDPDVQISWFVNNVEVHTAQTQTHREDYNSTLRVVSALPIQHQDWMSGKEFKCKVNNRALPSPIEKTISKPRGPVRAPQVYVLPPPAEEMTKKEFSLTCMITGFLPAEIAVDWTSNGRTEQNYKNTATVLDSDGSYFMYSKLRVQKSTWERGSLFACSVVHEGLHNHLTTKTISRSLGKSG

T2: human CD80-murine Ig fusion protein (human)
T2 construct: Bought (Ancell #510-820); also called hCD80-mIg; human CD80-murine IgG
T2 chain: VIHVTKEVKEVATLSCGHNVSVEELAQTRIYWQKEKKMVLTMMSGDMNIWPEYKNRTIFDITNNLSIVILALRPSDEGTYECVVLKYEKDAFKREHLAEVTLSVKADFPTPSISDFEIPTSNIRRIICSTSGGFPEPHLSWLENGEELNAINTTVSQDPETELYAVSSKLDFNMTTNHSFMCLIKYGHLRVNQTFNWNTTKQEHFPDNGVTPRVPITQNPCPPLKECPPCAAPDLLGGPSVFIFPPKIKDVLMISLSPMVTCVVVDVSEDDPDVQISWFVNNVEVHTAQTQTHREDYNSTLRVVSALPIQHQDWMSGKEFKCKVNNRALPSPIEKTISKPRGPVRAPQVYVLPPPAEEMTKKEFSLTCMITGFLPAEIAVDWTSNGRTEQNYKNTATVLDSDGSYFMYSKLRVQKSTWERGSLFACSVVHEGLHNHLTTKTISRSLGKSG


Experiments:
[1] = target: T1, human CD86-murine Ig fusion protein; test: SPR Biacore, hCD86-mIg captured
Experimental: (§1) All Biacore™ analyses were performed on a Biacore™ 2000 system (GE Healthcare) at room temperature (RT, 25° C.). HBS-EP buffer (10 mM HEPES (pH 7.4), 150 mM NaCl, 3 mM EDTA, 0.005% surfactant P20) was used as the flow buffer for all experiments.
(§2) Rabbit anti-mouse IgG antibody (GE Healthcare, #BR-1005-14) was immobilized on CM5 sensor chips (GE Healthcare, #BR-1000-14) according to the manufacturer's protocol. Antibody was diluted to 30 μg/ml in immobilization buffer (10 mM sodium acetate, pH 5.0 (BR-1003-51)). At a flow rate of 5 μl/minute, sensor chip CM5 was activated with a 35 μl injection of a mixture of 1-Ethyl-3-[3-dimethylaminopropyl]carbodiimide hydrochloride (EDC) and N-hydroxysuccinimide (NHS) (made by mixing equal volumes of 11.5 mg/ml EDC and 75 mg/ml NHS) (GE Healthcare, #BR-1000-50), followed by a 35 μl injection of undiluted antibody. Un-reacted sites were quenched with 35 μl of 1M ethanolamine-HCL, pH 8.5 (GE Healthcare, #BR-1000-50). […] CTLA-4 ligands human CD80-murine Ig (hCD80-mIg) (Ancell, #510-820) or human CD86-murine Ig (hCD86-mIg) (Ancell, #509-820) were bound to antibody-coated sensor chips by injection of 10 μl or 16 μl, respectively, ligand solution (2 μg/ml protein in HBS-EP buffer [10 mM HEPES pH 7.4, 150 mM NaCl, 3 mM EDTA, 0.005% (v/v) surfactant P-20, GE Healthcare, #BR-1001-88]) at a flow rate of 10 μl/min.

[2] = target: T2, human CD80-murine Ig fusion protein; test: SPR Biacore, hCD80-mIg captured
Experimental: as §1, §2

| Binder | Kd [1] [nM] | Binding Avidity (Relative to Orencia) [2] [fold] | Kd [2] [nM] | Binding Avidity (Relative to Orencia) [1] [fold] |
| --- | --- | --- | --- | --- |
| D1T-IgG2 (Fc fusion) MHVAQPAVVLASSRGIASFVCEYESPHKANEIRVTVLRQANSQVTEVCAMTYMKGDELTFLDDPFCTGTFSGNQVNLTIQGLRAADTGLYICKVELMYPPPYYLGIGNGTQIYVIDPEPCPDSDERKCCVECPPCPAPPVAGPSVFLFPPKPKDTLMISRTPEVTCVVVDVSHEDPEVQFNWYVDGVEVHNAKTKPREEQFNSTFRVVSVLTVVHQDWLNGKEYKCKVSNKGLPAPIEKTISKTKGQPREPQVYTLPPSREEMTKNQVSLTCLVKGFYPSDIAVEWESNGQPENNYKTTPPMLDSDGSFFLYSKLTVDKSRWQQGNVFSCSVMHEALHNHYTQKSLSLSPG | 0.262 to 0.523 | > 2 | < 0.439 | – |
| D3-9-IgG2 (Fc fusion) MHVAQPAVVLASSRGIASFVCEYESPGKANEIRVTVLRQAGSQVTEVCAMTYMKGDELTFLDDPICTGTFSGNQVNLTIQGLRAADTGLYICKVELMYPPPYYLGFGNGTQIYVIDPEPCPDSDERKCCVECPPCPAPPVAGPSVFLFPPKPKDTLMISRTPEVTCVVVDVSHEDPEVQFNWYVDGVEVHNAKTKPREEQFNSTFRVVSVLTVVHQDWLNGKEYKCKVSNKGLPAPIEKTISKTKGQPREPQVYTLPPSREEMTKNQVSLTCLVKGFYPSDIAVEWESNGQPENNYKTTPPMLDSDGSFFLYSKLTVDKSRWQQGNVFSCSVMHEALHNHYTQKSLSLSPG | < 0.131 | – | 0.439 to 1.75 | > 40 |
| D3-8-IgG2 (Fc fusion) MHVAQPAVVLASSRGIASFVCEYESPGKANEIRVTVLRQAGSQVTEVCAMTYMKGDELTFLDDSSCTGTFSGNQVNLTIQGLRAADTGLYICKVELMYPPPYYLGFGNGTQIYVIDPEPCPDSDERKCCVECPPCPAPPVAGPSVFLFPPKPKDTLMISRTPEVTCVVVDVSHEDPEVQFNWYVDGVEVHNAKTKPREEQFNSTFRVVSVLTVVHQDWLNGKEYKCKVSNKGLPAPIEKTISKTKGQPREPQVYTLPPSREEMTKNQVSLTCLVKGFYPSDIAVEWESNGQPENNYKTTPPMLDSDGSFFLYSKLTVDKSRWQQGNVFSCSVMHEALHNHYTQKSLSLSPG | 0.131 to 0.262 | – | 0.439 to 1.75 | – |
| D3-16-IgG2 (Fc fusion) MHVAQPAVVLASSRGIASFVCEYESPGKANEIRVTVLRQAGSQVTEVCAMTYMKGDELTFLDDPSCTGTFSGNQVNLTIQGLRAMDTGLYICKVELMYPPPYYLGIGNGTQIYVIDPEPCPDSDERKCCVECPPCPAPPVAGPSVFLFPPKPKDTLMISRTPEVTCVVVDVSHEDPEVQFNWYVDGVEVHNAKTKPREEQFNSTFRVVSVLTVVHQDWLNGKEYKCKVSNKGLPAPIEKTISKTKGQPREPQVYTLPPSREEMTKNQVSLTCLVKGFYPSDIAVEWESNGQPENNYKTTPPMLDSDGSFFLYSKLTVDKSRWQQGNVFSCSVMHEALHNHYTQKSLSLSPG | < 0.131 | – | 0.439 to 1.75 | > 40 |
| D3-1-IgG2 (Fc fusion) MHVAQPAVVLASSRGIASFVCEYASPGKANEIRVTVLRQAGSQVTEVCAMTYMKGDELTFLDDPSCTGTFSGNQVNLTIQGLRAADTGLYICKVELMYPPPYYLGFGNGTQIYVIDPEPCPDSDERKCCVECPPCPAPPVAGPSVFLFPPKPKDTLMISRTPEVTCVVVDVSHEDPEVQFNWYVDGVEVHNAKTKPREEQFNSTFRVVSVLTVVHQDWLNGKEYKCKVSNKGLPAPIEKTISKTKGQPREPQVYTLPPSREEMTKNQVSLTCLVKGFYPSDIAVEWESNGQPENNYKTTPPMLDSDGSFFLYSKLTVDKSRWQQGNVFSCSVMHEALHNHYTQKSLSLSPG | < 0.131 | – | 0.439 to 1.75 | > 40 |
| D3-5-IgG2 (Fc fusion) MHVAQPAVVLASSRGIASFVCEYESPGKANEIRVTVLRQAGSQVTEVCAATYMKGDELTFLDDPSCTGTFSGNQVNLTIQGLRAADTGLYICKVELMYPPPYYLGFGNGTQIYVIDPEPCPDSDERKCCVECPPCPAPPVAGPSVFLFPPKPKDTLMISRTPEVTCVVVDVSHEDPEVQFNWYVDGVEVHNAKTKPREEQFNSTFRVVSVLTVVHQDWLNGKEYKCKVSNKGLPAPIEKTISKTKGQPREPQVYTLPPSREEMTKNQVSLTCLVKGFYPSDIAVEWESNGQPENNYKTTPPMLDSDGSFFLYSKLTVDKSRWQQGNVFSCSVMHEALHNHYTQKSLSLSPG | 0.131 to 0.262 | – | 0.439 to 1.75 | – |
| D3-22-IgG2 (Fc fusion) MHVAQPAVVLASSRGIASFVCEYESPGKANEIRVTVLRQAGSQVTEVCAMTYMKGNELTFLDDPSCTGTFSGNQVNLTIQGLRAMDTGLYICKVELMYPPPYYLGIGNGTQIYVIDPEPCPDSDERKCCVECPPCPAPPVAGPSVFLFPPKPKDTLMISRTPEVTCVVVDVSHEDPEVQFNWYVDGVEVHNAKTKPREEQFNSTFRVVSVLTVVHQDWLNGKEYKCKVSNKGLPAPIEKTISKTKGQPREPQVYTLPPSREEMTKNQVSLTCLVKGFYPSDIAVEWESNGQPENNYKTTPPMLDSDGSFFLYSKLTVDKSRWQQGNVFSCSVMHEALHNHYTQKSLSLSPG | 0.131 to 0.262 | – | 0.439 to 1.75 | – |
| D3-19-IgG2 (Fc fusion) MHVAQPAVVLASSRGIASFVCEYESPGKANEIRVTVLRQADSQVTEVCAMTYMKGNELTFLDDPSCTGTFSGNQVNLTIQGLRAADTGLYICKVELMYPPPYYLGIGNGTQIYVIDPEPCPDSDERKCCVECPPCPAPPVAGPSVFLFPPKPKDTLMISRTPEVTCVVVDVSHEDPEVQFNWYVDGVEVHNAKTKPREEQFNSTFRVVSVLTVVHQDWLNGKEYKCKVSNKGLPAPIEKTISKTKGQPREPQVYTLPPSREEMTKNQVSLTCLVKGFYPSDIAVEWESNGQPENNYKTTPPMLDSDGSFFLYSKLTVDKSRWQQGNVFSCSVMHEALHNHYTQKSLSLSPG | 0.131 to 0.262 | – | 0.439 to 1.75 | – |
| D3-7-IgG2 (Fc fusion, also called D3-07) MHVAQPAVVLASSRGIASFVCEYESPGKANEIRVTVLRQAGSQVTEVCAMTYMKGNELTFLDDPSCTGTFSGNQVNLTIQGLRAADTGLYICKVELMYPPPYYLGFGNGTQIYVIDPEPCPDSDERKCCVECPPCPAPPVAGPSVFLFPPKPKDTLMISRTPEVTCVVVDVSHEDPEVQFNWYVDGVEVHNAKTKPREEQFNSTFRVVSVLTVVHQDWLNGKEYKCKVSNKGLPAPIEKTISKTKGQPREPQVYTLPPSREEMTKNQVSLTCLVKGFYPSDIAVEWESNGQPENNYKTTPPMLDSDGSFFLYSKLTVDKSRWQQGNVFSCSVMHEALHNHYTQKSLSLSPG | < 0.131 | – | 0.439 to 1.75 | > 40 |
| D3-21-IgG2 (Fc fusion) MHVAQPAVVLASSRGIASFVCEYESPGKANEIRVTVLRQADSQVTEVCAMTYMKGNELTFLDDPSCTGTFSGNQVNLTIQGLRAMDTGLYICKVELMYPPPYYLGFGNGTQIYVIDPEPCPDSDERKCCVECPPCPAPPVAGPSVFLFPPKPKDTLMISRTPEVTCVVVDVSHEDPEVQFNWYVDGVEVHNAKTKPREEQFNSTFRVVSVLTVVHQDWLNGKEYKCKVSNKGLPAPIEKTISKTKGQPREPQVYTLPPSREEMTKNQVSLTCLVKGFYPSDIAVEWESNGQPENNYKTTPPMLDSDGSFFLYSKLTVDKSRWQQGNVFSCSVMHEALHNHYTQKSLSLSPG | 0.131 to 0.262 | – | 0.439 to 1.75 | – |
